In paper PMC10045489 (Bioengineering, 2023):

Target: T1, full-length His-tagged SARS-CoV-2 spike protein (wild-type) (SARS-CoV-2, wild-type (Wuhan-Hu-1), UniProt P0DTC2)
T1 construct: also called full-length S-protein; full-length Spike protein; source: CHO Express cells, cell medium purified by Ni-IMAC; not shown: His-tag, C-terminal, kept
Test: BLI
Conditions: both partners purified

B1: Nb20 nanobody (VHH)
VHH: QVQLVESGGGLVQAGGSLRLSCAVSGAGAHRVGWFRRAPGKEREFVAAIGASGGMTNYLDSVKGRFTISRDNAKNTIYLQMNSLKPQDTAVYYCAARDIETAEYIYWGQGTQVTVSS
notes: not shown: ecotin, N-terminal, cleaved; His-tag, N-terminal, cleaved
In the case of B1, the Kd is reported as ~1 nM.
